# Biological target: T1, human PSMA on cells (LNCaP) (human, UniProt Q04609 1-750)
# T1 construct: whole, on cells; also called LNCaP cells
# Assay: flow cytometry cell binding assay on LNCaP cells
# Procedure: PSMA×CD3 bispecific antibodies were tested for binding to PSMA positive cell line, LNCAP, to PSMA negative cell line, PC3. To assess the binding capabilities of the PSMA bispecific antibodies, the cell-binding assay was utilized (described previously). Bispecific antibodies were normalized for protein concentration and then incubated with the same number of cells expressing either human or cyno PSMA. The MFI at each concentration was collected by flow cytometry and plotted as a function of concentration. Data was transformed via log 10 and then plotted. Nonlinear regression of binding curves was done to determine EC50s.
# T1 sequence (Q04609 whole entry): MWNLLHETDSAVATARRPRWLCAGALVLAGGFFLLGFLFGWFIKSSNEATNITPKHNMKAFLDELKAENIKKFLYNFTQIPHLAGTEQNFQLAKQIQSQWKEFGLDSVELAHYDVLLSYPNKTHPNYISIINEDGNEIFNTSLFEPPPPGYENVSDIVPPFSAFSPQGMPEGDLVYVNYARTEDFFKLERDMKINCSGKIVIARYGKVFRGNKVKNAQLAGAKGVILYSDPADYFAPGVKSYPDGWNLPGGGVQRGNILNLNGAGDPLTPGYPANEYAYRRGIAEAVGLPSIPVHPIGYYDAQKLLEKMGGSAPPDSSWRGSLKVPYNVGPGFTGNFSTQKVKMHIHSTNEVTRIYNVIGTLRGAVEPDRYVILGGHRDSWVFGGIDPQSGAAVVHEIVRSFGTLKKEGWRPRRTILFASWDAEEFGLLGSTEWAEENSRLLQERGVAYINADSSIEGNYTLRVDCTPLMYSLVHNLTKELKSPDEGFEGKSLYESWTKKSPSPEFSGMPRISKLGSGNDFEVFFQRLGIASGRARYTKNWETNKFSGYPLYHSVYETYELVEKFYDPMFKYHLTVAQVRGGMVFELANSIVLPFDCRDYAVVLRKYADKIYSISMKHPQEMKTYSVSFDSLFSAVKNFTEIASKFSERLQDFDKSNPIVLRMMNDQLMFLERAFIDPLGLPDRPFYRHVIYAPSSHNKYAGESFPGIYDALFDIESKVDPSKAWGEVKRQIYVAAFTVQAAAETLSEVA
binder,measurement,value
"PS3B70 (bispecific antibody, human IgG4 S228P, kappa, F234A L235A, IgG4 PAA; CD3 arm with F405L, R409K; also called PSMB358 x CD3B219) heavy: not shown light: not shown VH: EVQLVESGGGLVQPGGSLRLSCAASGFTFNTYAMNWVRQAPGKGLEWVARIRSKYNNYATYYAASVKGRFTISRDDSKNSLYLQMNSLKTEDTAVYYCARHGNFGNSYVSWFAYWGQGTLVTVSS VL: QTVVTQEPSLTVSPGGTVTLTCRSSTGAVTTSNYANWVQQKPGQAPRGLIGGTNKRAPGTPARFSGSLLGGKAALTLSGVQPEDEAEYYCALWYSNLWVFGGGTKLTVL",binding result,binds
"PS3B61 (bispecific antibody, human IgG4 S228P, kappa, F234A L235A, IgG4 PAA; CD3 arm with F405L, R409K; also called PSMB345 x CD3B219) heavy: not shown light: not shown VH: EVQLVESGGGLVQPGGSLRLSCAASGFTFNTYAMNWVRQAPGKGLEWVARIRSKYNNYATYYAASVKGRFTISRDDSKNSLYLQMNSLKTEDTAVYYCARHGNFGNSYVSWFAYWGQGTLVTVSS VL: QTVVTQEPSLTVSPGGTVTLTCRSSTGAVTTSNYANWVQQKPGQAPRGLIGGTNKRAPGTPARFSGSLLGGKAALTLSGVQPEDEAEYYCALWYSNLWVFGGGTKLTVL",binding result,binds
"PS3B72 (bispecific antibody, human IgG4 S228P, kappa, F234A L235A, IgG4 PAA; CD3 arm with F405L, R409K; also called PSMB360 x CD3B219) heavy: not shown light: not shown VH: EVQLVESGGGLVQPGGSLRLSCAASGFTFNTYAMNWVRQAPGKGLEWVARIRSKYNNYATYYAASVKGRFTISRDDSKNSLYLQMNSLKTEDTAVYYCARHGNFGNSYVSWFAYWGQGTLVTVSS VL: QTVVTQEPSLTVSPGGTVTLTCRSSTGAVTTSNYANWVQQKPGQAPRGLIGGTNKRAPGTPARFSGSLLGGKAALTLSGVQPEDEAEYYCALWYSNLWVFGGGTKLTVL",binding result,binds
"PS3B62 (bispecific antibody, human IgG4 S228P, kappa, F234A L235A, IgG4 PAA; CD3 arm with F405L, R409K; also called PSMB346 x CD3B219) heavy: not shown light: not shown VH: EVQLVESGGGLVQPGGSLRLSCAASGFTFNTYAMNWVRQAPGKGLEWVARIRSKYNNYATYYAASVKGRFTISRDDSKNSLYLQMNSLKTEDTAVYYCARHGNFGNSYVSWFAYWGQGTLVTVSS VL: QTVVTQEPSLTVSPGGTVTLTCRSSTGAVTTSNYANWVQQKPGQAPRGLIGGTNKRAPGTPARFSGSLLGGKAALTLSGVQPEDEAEYYCALWYSNLWVFGGGTKLTVL",binding result,binds
"PS3B75 (bispecific antibody, human IgG4 S228P, kappa, F234A L235A, IgG4 PAA; CD3 arm with F405L, R409K; also called PSMB363 x CD3B219) heavy: not shown light: not shown VH: EVQLVESGGGLVQPGGSLRLSCAASGFTFNTYAMNWVRQAPGKGLEWVARIRSKYNNYATYYAASVKGRFTISRDDSKNSLYLQMNSLKTEDTAVYYCARHGNFGNSYVSWFAYWGQGTLVTVSS VL: QTVVTQEPSLTVSPGGTVTLTCRSSTGAVTTSNYANWVQQKPGQAPRGLIGGTNKRAPGTPARFSGSLLGGKAALTLSGVQPEDEAEYYCALWYSNLWVFGGGTKLTVL",binding result,binds
"PS3B74 (bispecific antibody, human IgG4 S228P, kappa, F234A L235A, IgG4 PAA; CD3 arm with F405L, R409K; also called PSMB362 x CD3B219) heavy: not shown light: not shown VH: EVQLVESGGGLVQPGGSLRLSCAASGFTFNTYAMNWVRQAPGKGLEWVARIRSKYNNYATYYAASVKGRFTISRDDSKNSLYLQMNSLKTEDTAVYYCARHGNFGNSYVSWFAYWGQGTLVTVSS VL: QTVVTQEPSLTVSPGGTVTLTCRSSTGAVTTSNYANWVQQKPGQAPRGLIGGTNKRAPGTPARFSGSLLGGKAALTLSGVQPEDEAEYYCALWYSNLWVFGGGTKLTVL",binding result,binds
"PS3B63 (bispecific antibody, human IgG4 S228P, kappa, F234A L235A, IgG4 PAA; CD3 arm with F405L, R409K; also called PSMB347 x CD3B219) heavy: not shown light: not shown VH: EVQLVESGGGLVQPGGSLRLSCAASGFTFNTYAMNWVRQAPGKGLEWVARIRSKYNNYATYYAASVKGRFTISRDDSKNSLYLQMNSLKTEDTAVYYCARHGNFGNSYVSWFAYWGQGTLVTVSS VL: QTVVTQEPSLTVSPGGTVTLTCRSSTGAVTTSNYANWVQQKPGQAPRGLIGGTNKRAPGTPARFSGSLLGGKAALTLSGVQPEDEAEYYCALWYSNLWVFGGGTKLTVL",EC50 (read off the curve),~2 nM
"PS3B71 (bispecific antibody, human IgG4 S228P, kappa, F234A L235A, IgG4 PAA; CD3 arm with F405L, R409K; also called PSMB359 x CD3B219) heavy: not shown light: not shown VH: EVQLVESGGGLVQPGGSLRLSCAASGFTFNTYAMNWVRQAPGKGLEWVARIRSKYNNYATYYAASVKGRFTISRDDSKNSLYLQMNSLKTEDTAVYYCARHGNFGNSYVSWFAYWGQGTLVTVSS VL: QTVVTQEPSLTVSPGGTVTLTCRSSTGAVTTSNYANWVQQKPGQAPRGLIGGTNKRAPGTPARFSGSLLGGKAALTLSGVQPEDEAEYYCALWYSNLWVFGGGTKLTVL",EC50 (read off the curve),~8 nM

# Reference: patent US20230322924A1 (Janssen / Centocor, published 2023)
